# From publication PMC7049163 (Proceedings of the National Academy of Sciences of the …, 2020)
# Target: the molecule itself
# Experiment: crystal structure
protein,measurement,value
copper-containing nitrite reductase from Geobacillus thermodenitrificans (enzyme) ESKNKTAATQQSEPNVIAAHKGVNQAPVPLKMERVGPHDVHIEMTAQITDIEIDKGKIYKAWTFNGQAPGPLVVVNEGDTIHFTLKNMDPVVPHSMDFHAVHASPSKDFIDVMPNKSGTFTYPANKPGVFMYHCGTKPVLQHIANGMHGVIIVKPKNGYPTDKEVDREYVLIQNEWYKYNDMNDFQNGVPSYVVFSSKALKPGDPNTNGDTFTLKEKPLLAKVGEKIRLYINNVGPNEVSSFHVVGTVFDDVYLDGNPNNHLQGMQTVMLPASGGAVVEFTVTRPGTYPIVTHQFNHAQKGAVAMLKVTETGEDDGTETSGH,stoichiometry N,3
